In patent US20210269521A1 (L AND L BIOPHARMA, published 2021):

Tests used:
[1] = target: T1, human PD-1 extracellular domain protein expressed in Example 1 (tag not stated) (human, UniProt Q15116 25-170); experiment: ELISA; PBS, 37°C 14 days, against 0 day
T1 construct: extracellular domain; also called PD-1 protein; not shown: human IgG1 Fc or his tag

[2] = target: T2, human TIM-3 extracellular domain-human IgG1 Fc fusion protein (human, UniProt Q8TDQ0 22-199); experiment: ELISA; PBS, 37°C 14 days, against 0 day
T2 construct: Made in house or bought (ACROBiosystems TM3-H5258); also called TIM-3-hFc; not shown: human IgG1 Fc

- Fold change of EC50 [1]: 1.37 ratio
- Fold change of EC50 [2]: 2.71 ratio
B1: bispecific antibody LB141 (bispecific antibody, human IgG4 S228P, kappa)
light: EIVLTQSPATLSLSPGERATLSCRASKGVSTSGYSYLHWYQQKPGQAPRLLIYLASYLESGVPARFSGSGSGTDFTLTISSLEPEDFAVYYCQHSRDLPLTFGGGTKVEIKRTVAAPSVFIFPPSDEQLKSGTASVVCLLNNFYPREAKVQWKVDNALQSGNSQESVTEQDSKDSTYSLSSTLTLSKADYEKHKVYACEVTHQGLSSPVTKSFNRGEC
heavy: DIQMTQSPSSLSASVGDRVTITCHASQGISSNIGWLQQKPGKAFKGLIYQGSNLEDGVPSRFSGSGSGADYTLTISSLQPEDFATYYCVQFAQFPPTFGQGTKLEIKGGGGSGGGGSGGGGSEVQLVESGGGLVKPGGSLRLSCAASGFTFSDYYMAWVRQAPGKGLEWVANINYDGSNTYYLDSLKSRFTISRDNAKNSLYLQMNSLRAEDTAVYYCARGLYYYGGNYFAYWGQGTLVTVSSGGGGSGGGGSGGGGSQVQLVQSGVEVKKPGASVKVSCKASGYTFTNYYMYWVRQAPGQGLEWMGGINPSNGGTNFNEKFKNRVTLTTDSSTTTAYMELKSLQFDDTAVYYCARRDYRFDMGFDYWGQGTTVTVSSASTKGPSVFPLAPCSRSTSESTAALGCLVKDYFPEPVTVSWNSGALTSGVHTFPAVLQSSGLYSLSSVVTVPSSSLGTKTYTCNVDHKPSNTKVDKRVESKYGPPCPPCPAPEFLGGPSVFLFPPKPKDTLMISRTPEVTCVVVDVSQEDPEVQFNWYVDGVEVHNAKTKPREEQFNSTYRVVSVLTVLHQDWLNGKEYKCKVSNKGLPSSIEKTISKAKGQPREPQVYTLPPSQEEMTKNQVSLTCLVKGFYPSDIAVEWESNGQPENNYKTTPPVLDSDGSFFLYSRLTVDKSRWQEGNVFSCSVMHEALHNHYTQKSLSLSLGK
notes: ab6VL-(G4S)3-ab6VH-(G4S)3-PemVH-hIgG4 with PemVL-κ
